# Data: patent US20120058906A1 (published 2012)
# Substitutions are numbered along the chain they refer to.
# T1: rHuman Erythropoietin R/Fc Chimera, CF (R&D Systems Cat#963-ER) (human, UniProt P19235 25-250)
# T1 construct: Bought Fc chimera; also called EPO R/Fc; EPOR; Fc part of the bought chimera not given
# T1 sequence: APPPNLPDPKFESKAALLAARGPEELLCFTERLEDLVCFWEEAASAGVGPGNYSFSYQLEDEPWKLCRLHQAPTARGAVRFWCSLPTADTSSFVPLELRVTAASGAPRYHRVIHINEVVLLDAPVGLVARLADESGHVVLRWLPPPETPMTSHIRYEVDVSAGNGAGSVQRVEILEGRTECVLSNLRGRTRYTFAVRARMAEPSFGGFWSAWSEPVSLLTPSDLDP
# T2: rHuman Erythropoietin R/Fc Chimera, CF (R&D Systems Cat#963-ER) (human, UniProt P19235 25-250)
# T2 construct: Bought Fc chimera; also called EPO R/Fc; Epo R; not shown: Fc of the bought chimera
# T2 sequence: T1 sequence
# B1: Fab VH1-46_IGHD6-6*01_IGHJ1*01 & L6_IGKJ1*01 (Fab, V domains shown)
# VH: QVQLVQSGAEVKKPGASVKVSCKASGYTFTSYYMHWVRQAPGQGLEWMGIINPSGGSTSYAQKFQGRVTMTRDTSTSTVYMELSSLRSEDTAVYYCAREEYSSSSAEYFQHWGQGTLVTVSS
# VL: not shown
# notes: Expressed in E. coli as Fab: heavy chain with CH1 plus Flag and His tags from Plasmid A, kappa light chain constant region from Plasmid C; also called Fab No. 1
# B2: Fab VH1-46_IGHD6-6*01_IGHJ1*01_S102A_S103P_S104F & L6_IGKJ1*01_S28P (Fab, V domains shown)
# VH: B1 VH with S102A, S103P, S104F
# VL: EIVLTQSPATLSLSPGERATLSCRASQPVSSYLAWYQQKPGQAPRLLIYDASNRATGIPARFSGSGSGTDFTLTISSLEPEDFAVYYCQQRSNWPPWTFGQGTKVEIKR
# notes: Fab
# Experiments:
# [1] = molecular target: T3, rHuman CD44/Fc Chimera, CF (R&D Systems Cat#3660-CD) (human, UniProt P16070 21-220); assay: MSD ECL titration, Fab 0.6 nM, blank 226
# T3 construct: Bought Fc chimera; Fc part of the bought chimera not given
# [2] = molecular target: T4, rHuman HGF R/c-MET/Fc Chimera, CF (R&D Systems Cat#358-MT/CF) (human, UniProt P08581 25-932); assay: MSD ECL titration, Fab 0.6 nM, blank 226
# T4 construct: Bought Fc chimera; also called HGF R/Fc; Fc part of the bought chimera not given
# [3] = molecular target: T5, Recombinant Human DLL4 (R&D Systems Cat#1506-D4/CF) (human, UniProt Q9NR61 27-524); assay: MSD ECL titration, Fab 0.6 nM, blank 226
# T5 construct: Bought recombinant protein; also called rHuman DLL4; delta-like protein 4
# [4] = molecular target: T6, rHuman EGF R/Fc Chimera, CF (R&D Systems Cat#344-ER) (human, UniProt P00533 25-645); assay: MSD ECL titration, Fab 9.3 nM, blank 287
# T6 construct: Bought Fc chimera; Fc part of the bought chimera not given
# [5] = molecular target: T3, rHuman CD44/Fc Chimera, CF (R&D Systems …); assay: MSD ECL titration, Fab 9.3 nM, blank 287
# [6] = molecular target: T4, rHuman HGF R/c-MET/Fc Chimera, CF (R&D …); assay: MSD ECL titration, Fab 9.3 nM, blank 287
# [7] = molecular target: T5, Recombinant Human DLL4 (R&D Systems …); assay: MSD ECL titration, Fab 9.3 nM, blank 287
# [8] = molecular target: T1, rHuman Erythropoietin R/Fc Chimera, CF …; assay: MSD ECL titration, Fab 9.3 nM, blank 287
# [9] = molecular target: T7, rHuman IGF-1 sR (insulin-like growth factor-1 soluble receptor), CF (R&D Systems Cat#391-GR) (human, UniProt P08069 31-932); assay: MSD ECL titration, Fab 9.3 nM, blank 287
# T7 construct: Bought soluble receptor; also called IGF-R1
# [10] = molecular target: T8, rHuman Notch-1/Fc Chimera, CF (R&D Systems Cat#3647-TK) (human, UniProt P46531 19-526); assay: MSD ECL titration, Fab 9.3 nM, blank 287
# T8 construct: Bought Fc chimera; Fc part of the bought chimera not given
# [11] = molecular target: T9, rHuman P-Cadherin/Fc Chimera, CF (R&D Systems Cat#861-PC) (human, UniProt P22223 108-654); assay: MSD ECL titration, Fab 9.3 nM, blank 287
# T9 construct: Bought Fc chimera; Fc part of the bought chimera not given
# [12] = molecular target: T10, rHuman P-Cadherin/Fc Chimera, CF (R&D Systems Cat#861-PC) (human, UniProt P22223 108-654); assay: ECL (MSD multi-spot), antigen on plate, Fab 0.4 nM
# T10 construct: Bought Fc chimera; also called CDH3; not shown: Fc of the bought chimera
# [13] = molecular target: T11, rHuman Notch-1/Fc Chimera, CF (R&D Systems Cat#3647-TK) (human, UniProt P46531 19-526); assay: ECL (MSD multi-spot), antigen on plate, Fab 0.4 nM
# T11 construct: Bought Fc chimera; not shown: Fc of the bought chimera
# [14] = molecular target: T12, Recombinant Human DLL4 (R&D Systems Cat#1506-D4/CF) (human, UniProt Q9NR61 27-524); assay: ECL (MSD multi-spot), antigen on plate, Fab 0.4 nM
# T12 construct: Bought recombinant protein; also called delta-like protein 4
# [15] = molecular target: T13, rHuman HGF R/c-MET/Fc Chimera, CF (R&D Systems Cat#358-MT/CF) (human, UniProt P08581 25-932); assay: ECL (MSD multi-spot), antigen on plate, Fab 0.4 nM
# T13 construct: Bought Fc chimera; also called HGF R/Fc; not shown: Fc of the bought chimera
# [16] = molecular target: T14, rHuman IGF-1 sR (insulin-like growth factor-1 soluble receptor), CF (R&D Systems Cat#391-GR) (human, UniProt P08069 31-932); assay: ECL (MSD multi-spot), antigen on plate, Fab 0.4 nM
# T14 construct: Bought soluble receptor; also called IGF-R1
# [17] = molecular target: T15, rHuman CD44/Fc Chimera, CF (R&D Systems Cat#3660-CD) (human, UniProt P16070 21-220); assay: ECL (MSD multi-spot), antigen on plate, Fab 0.4 nM
# T15 construct: Bought Fc chimera; not shown: Fc of the bought chimera
# [18] = molecular target: T2, rHuman Erythropoietin R/Fc Chimera, CF …; assay: ECL (MSD multi-spot), antigen on plate, Fab 0.4 nM
# [19] = molecular target: T16, rHuman ErbB2/Fc Chimera, CF (R&D Systems Cat#1129-ER) (human, UniProt P04626 23-652); assay: ECL (MSD multi-spot), antigen on plate, Fab 0.4 nM
# T16 construct: Bought Fc chimera; also called HER2/neu; not shown: Fc of the bought chimera
# [20] = molecular target: T17, rHuman EGF R/Fc Chimera, CF (R&D Systems Cat#344-ER) (human, UniProt P00533 25-645); assay: ECL (MSD multi-spot), antigen on plate, Fab 0.4 nM
# T17 construct: Bought Fc chimera; also called ErbB-1; not shown: Fc of the bought chimera
# 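Also: blank spot per well as comparator with Hit at signal to blank ratio of 4 or more.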
ECL signal [1],ECL signal [2],ECL signal [3],ECL signal [4],ECL signal [5],ECL signal [6],ECL signal [7],ECL signal [8],ECL signal [9],ECL signal [10],ECL signal [11],ECL signal [12],ECL signal [13],ECL signal [14],ECL signal [15],ECL signal [16],ECL signal [17],ECL signal [18],ECL signal [19],ECL signal [20],Binder
238,256,508,424,396,324,13200,306,315,492,452,,,,,,,,,,B1
,,,,,,,,,,,191 ECL signal,248 ECL signal,1140 ECL signal,199 ECL signal,172 ECL signal,257 ECL signal,147 ECL signal,275 ECL signal,246 ECL signal,B2
